We go through 13 molecules from patent EP4209511A1.

Experiment [1] addresses T1, human CD84 on cells (human) (UniProt Q9UIB8).
T1 sequence (looked up): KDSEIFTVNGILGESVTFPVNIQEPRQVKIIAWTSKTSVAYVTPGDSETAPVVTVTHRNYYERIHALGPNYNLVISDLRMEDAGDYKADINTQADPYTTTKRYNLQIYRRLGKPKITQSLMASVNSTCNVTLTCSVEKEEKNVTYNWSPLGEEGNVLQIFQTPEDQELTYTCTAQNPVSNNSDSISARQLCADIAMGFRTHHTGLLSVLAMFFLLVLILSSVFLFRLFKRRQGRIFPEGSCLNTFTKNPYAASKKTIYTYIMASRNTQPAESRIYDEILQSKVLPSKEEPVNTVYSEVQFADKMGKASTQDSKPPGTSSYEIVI
The experiment in a line: flow cytometry, hybridoma supernatant at equal antibody concentration, monocytes. A general note: Flow cytometry measures light scatter and fluorescence of single cells or particles in a stream.

The target of experiment [2] is T1, human CD84 on cells (human). The experiment in a line: flow cytometry, hybridoma supernatant at equal antibody concentration, Raji cells.
Experiment [3] has the same target. The experiment in a line: flow cytometry, hybridoma supernatant at equal antibody concentration, Ramos cells.
Experiment [4] shares this target. The experiment in a line: flow cytometry, hybridoma supernatant at equal antibody concentration, lymphocytes.
For experiment [5] the target is unchanged. The experiment in a line: flow cytometry, hybridoma supernatant at equal antibody concentration, 300.19-CD84+ cells.
Experiment [6] deals with T2, Human CD84 produced by mammalian cells (human) (UniProt Q9UIB8).
T2 sequence (looked up): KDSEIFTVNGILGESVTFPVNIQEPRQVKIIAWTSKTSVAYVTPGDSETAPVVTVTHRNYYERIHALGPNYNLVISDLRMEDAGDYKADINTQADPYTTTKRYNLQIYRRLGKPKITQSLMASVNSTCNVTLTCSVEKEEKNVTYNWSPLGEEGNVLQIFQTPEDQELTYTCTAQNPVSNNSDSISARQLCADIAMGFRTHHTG
The experiment in a line: monoclonal phage ELISA, plate coated with CD84 antigen, anti-phage HRP antibody. (In general: ELISA stands for enzyme-linked immunosorbent assay.)

B1: GYCD84.1-108 (antibody, mouse IgG2a, V domains shown)
VH: QVQLQQSGAELVRPGTSVKMSCKAAGYTFTNYWIGWVRQRPGHGLEWIGDIYPGGGYTNYNENFKGKATLTADTSSSTAYMQLSSLTSEDSAIYYCARSTTYYSSYWCFDVWGPGTTVTVSS
VL: DIVMTQSPSSLSVSAGEKVTMSCKSSQSLLNSGNQANYLAWYQQKPGQPPKLLINGASTRESGVPDRFTGSGSGTDFTLTISSVQAEDLAVYYCQNDHSYPFTFGSGTKLEIK
Regarding B1, the Monocyte binding in experiment [1] was found to be 41.3%. In experiment [2], this molecule returned a Raji binding of 30.3%. For the same molecule, in experiment [3], the Ramos binding stood at 31.2%. In experiment [4], this molecule came in with a Lymphocyte binding of 13.6%. Further, the 300.19-CD84 binding in experiment [5] turned out to be 93.9%.

B2: GYCD84.2.32 (antibody, mouse IgG1, V domains shown)
VH: EVQLQQSGPELEKPGASVKISCKASGYSFTGYNMNWVKQSNGKSLEWIGNIDPYYGGTNYNQKFKGKATLTVDKSSSTAYMQLKSLTSEDSAVYYCARGLLSGSFPYWGQGTLVTVSA
VL: DIQMTQSPASLSASVGETVTITCRASENIYSYLAWYQQKQGKSPQLLVYNAKTLAEGVPSRFSGSGSGTQFSLKINSLHPEDFGSYFCQHHYGSPLTFGAGTKLEVK
Molecule B2 came in with a Monocyte binding in experiment [1] of 78.2%. Moreover, the Raji binding in experiment [2] amounted to 99.5%. The Ramos binding in experiment [3] is 78.6%. In addition, in experiment [4], the Lymphocyte binding amounted to 28.7%. Also, the 300.19-CD84 binding in experiment [5] stood at 99%.

B3: GYCD84.1-7 (antibody, mouse IgG1, V domains shown)
VH: QVTLKESGPGILQPSQTLSLTCSFSGFSLSTSGMGVGWIRQPSGKGLEWLAHIWWDDVKRYNPALKSRLTISKDTSSSQVFLKIASVDTADTATYYCARMRTSYYFDYWGQGTTLTVSS
VL: DIQMTQSPASLSASVGETVTITCRASENIFSSLAWYQQRQGKSPQLLVYNAKTLAEGVPSRFSGSGSGTQFSLKINSLQPEDFGSYYCQHHYATPFTFGSGTKLEIK
In the case of B3, the Monocyte binding in experiment [1] stood at 64.4%. This molecule displayed a Raji binding in experiment [2] of 91.4%. Besides, the Ramos binding in experiment [3] was 59%. Moreover, the Lymphocyte binding in experiment [4] amounted to 19%. For the same molecule, the 300.19-CD84 binding in experiment [5] turned out to be 92.6%.

B4: R3-H3 (scFv)
scFv: EVQLVESGGGLVQPGGSLRLSCAASGFTFSDNAMSWVRQAPGKGLEWVSAISGTGRTTYYADSVKGRFTISRDNSKNTLYLQMNSLRAEDTAVYYCAKWDCSDGRCYWAYWGQGTLVTVSSGGGGSGGGGSGGGGSGGGGASEIVLTQSPLSLPVTLGQPASISCRSSQSLVYSDGDTYLNWFQQRPGQSPRRLIYKVSNRDSGVPDRFSGSGSGTDFTLKISRVEAEDVGVYYCMQGTHWPPNTFGQGTRLEIK
B4 displayed an ELISA signal on antigen (Ag), read at 450 nm (absorbance at 450 nm) in experiment [6] of 0.696.

B5: R3-G7 (scFv)
scFv: QVQLVESGGGVVQPGRSLRLSCTASGFTFSSYPMHWVRQAPGKGLEWVAAISYHGRNKFYADSVKGRFTISRDDLRSTLYLQMNNLKADDTAVYSCARDRDATPGGTGVGNHGMAVWGQGTTVTVSSGGGGSGGGGSGGGGSGGGGASEIVLTQSPLSLPVTPGEPASISCKSSQSLLHSSGYNYLDWYLQKPGQSPQLLIHMGSNRASGVPARFSGSGSGTDFTLRISRVEAEDVGVYYCMQGLQTPPTFGGGTKLEIK
For B5, in experiment [6], the ELISA signal on antigen (Ag), read at 450 nm (absorbance at 450 nm) worked out at 2.4.

B6: 152-1D5 (antibody, mouse IgG1, V domains shown)
VH: QVQLQQPGAEVVQPGTSVKLSCKASGYNFTNYWINWVKLRPGQGLEWIGDIYPVSGTTNYNEKFKRKATLTVDTSSSTGNMQLSSLASEDSALYYCASGTGRFAYWGQGTLVTVSA
VL: DIVLTQSPASLAVSLGQRATISCRASQSVSTSSYSYMHWYQQKPGQPPKLLIKFASNLESGVPARFSGSGSGTDFTLNIHPVEEEDTATYYCQHSWEIPYTFGGGTKLEIK
In turn, B6 came in with a Monocyte binding in experiment [1] of 72%. In experiment [2], this molecule came in with a Raji binding of 97.6%. Moreover, the Ramos binding in experiment [3] worked out at 73.4%. This molecule had a Lymphocyte binding in experiment [4] of 24.4%. This molecule had a 300.19-CD84 binding in experiment [5] of 92.5%.

B7: GYCD84.1-226 (antibody, mouse IgG1, V domains shown)
VH: QVQLQQPGAELVKPGTSVKLSCKASGYNFTRYWINWVKLRPGQGLEWIGDIYPGSGSTNYNEKFKSKATLTVDTSSSTAYMQLSRLASEDSALYYCARDTTIAYWGQGTLVTVSA
VL: DIVLTQSPTSLAVSLGQRATISCRASQSVTTSRYSYMHWYQQKPGQPPKLLIKFASNLESGVPARFSGSGSGTDFTLNIHPVEEEDTATYYCQHSWEIPYTFGGGTKLEIK
As to B7, the Monocyte binding in experiment [1] turned out to be 76.1%. The Raji binding in experiment [2] came to 99.9%. In experiment [3], this molecule yielded a Ramos binding of 80.2%. The molecule also came in with a Lymphocyte binding in experiment [4] of 28.7%. Also, the 300.19-CD84 binding in experiment [5] amounted to 98.1%.

B8: GYCD84.1-97 (antibody, mouse IgG2a, V domains shown)
VH: QVQLQQPGAELVKPGTSVKLSCKASGYNFTSYWINWVKLRPGQGLEWIGDIYLGSGSTNYNEKFKSKATLTVDTSSSSAYMQLSSLVSEDSALYYCATSGGYLGYWGQGTTLTVSS
VL: DIVLTQSPASLAVSLGQRATISCRASQSVSTSSYSYMHWYQQKPGQPPKLLIKFASNLESGVPARFSGSGSGTDFTLNIHPVEEEDTATYYCQHSWEIPYTFGGGTKLEIK
Consider B8, for which, in experiment [5], the 300.19-CD84 binding came to 97.7%.

B9: GYCD84.5.171 (antibody, mouse IgG1, V domains shown)
VH: EVQLVESGGGLVQPKGSLKLACAASGFTFNIYAMNWVRQAPGKGLEWVARIRSKSNNYARFYADSVKDRFTISRDDSQSMLYLQMNNLKTEDTAMYYCVRPLRSYFSMDYWGQGTSVTVSS
VL: SIVMTQSPKSMSMSVGERVTLSCKASENVDTYVSWYQQKPEQSPKLLIYGASNRYTGVPDRFTGSGSATDFTLTISSVKAEDLADYHCGQTYSYPWTFGGGTKLEIK
The molecule B9 returned a Monocyte binding in experiment [1] of 64.8%. Moreover, the Raji binding in experiment [2] stood at 73.9%. Moreover, in experiment [3], the Ramos binding was 35.1%. In experiment [4], this molecule showed a Lymphocyte binding of 26.8%. In experiment [5], this molecule displayed a 300.19-CD84 binding of 93.2%.

B10: GYCD84.2.27 (antibody, mouse IgG1, V domains shown)
VH: QVTLKESGPGILQPSQTLSLTCSFSGFSLTTSGMGVGWIRQPSGKGLEWLAHIWWDDVKRYNPALKSRLTISKDTSSSQVFLKIASVDTADTASYYCARMSTSYYFDYWGQGTTLTVSS
VL: DIVMTQSHKFMSTSLGDRVSISCKASQSLFTSVAWYQQKPGQSPKLLIYSASYRYTGVPDRFTGSGSGTDFTFTISSVQAEDLAVYYCQQHYSSPFTFGSGTKLGIK
Molecule B10 yielded a Monocyte binding in experiment [1] of 77.5%. In experiment [2], this molecule showed a Raji binding of 97.5%. Besides, the Ramos binding in experiment [3] is 66.3%. This molecule also returned a Lymphocyte binding in experiment [4] of 25.4%. This molecule returned a 300.19-CD84 binding in experiment [5] of 96.3%.

B11: GYCD84.3.298 (antibody, mouse IgG1, V domains shown)
VH: QVTLKESGPGILQPSQTLSLTCSFSGFSLSTSGMGVGWIRQPSGKGLEWLAHIWWDDVKRYNPALRSRLTISKDTSSSQVFLNIASVDTADTATYYCTRIAVTYFFDFWGQGTTLTVSS
VL: DIQMTQSPASLSASVGETVTITCRASENIFSSFAWYQQKRGRSPQLLVYNARTLAEGVPSRFSGSGSGTQFSLKINSLQPEDFGTYFCQHHYASPFTFGSGTELGVK
For B11, the Monocyte binding in experiment [1] turned out to be 53.9%. This molecule also gave a Raji binding in experiment [2] of 45.9%. In experiment [3], this molecule displayed a Ramos binding of 28.3%. Moreover, in experiment [4], the Lymphocyte binding turned out to be 16.6%. In experiment [5], this molecule displayed a 300.19-CD84 binding of 93.5%.

B12: GYCD84.3.89 (antibody, mouse IgG1, V domains shown)
VH: EVKLLESGGGLVQPGGSLKLSCAASGFGFSRSWMSWVRQAPGKGLEWIGEINPDSSTINYTPSLKDKFIISRDNAKNTLFLQMSKVRSEDTALYYCATFYDGYSIYWYFDVWGAGTTVTVSS
VL: DVLMTQTPLSLPVSLGDQASISCRSSQSIVHSNGDTYLEWYLQKPGQSPKLLIYKVSNRFSGVPDRFSGSGSGTDFTLKISRVEAEDLGVYYCFQGSHVPRTFGGGTKLEIK
In experiment [1], B12 came in with a Monocyte binding of 72.7%. The Raji binding in experiment [2] worked out at 99.1%. The same molecule had a Ramos binding in experiment [3] of 91.3%. Besides, the Lymphocyte binding in experiment [4] was 24.9%. The molecule also came in with a 300.19-CD84 binding in experiment [5] of 83%.

B13: GYCD84.1-207 (antibody, mouse IgG1, V domains shown)
VH: EVKLLESGGGLVQPGGSLKLSCAASGFDFSRYWMSWVRQAPGKGLEWIGEINPDSSTINYTPSLKDKFIISRDNAKNTLYLQMSKVRSEDTALYYCARPGPTVVATYWYFDVWGAGTTVTVSS
VL: DVLMTQTPLSLPVSLGDQASISCRSSQSIVHSNGNTYLEWYLQKPGQSPKLLIYKVSSRFSGVPDRFSGSASGTDFTLKISRVEAEDLGVYYCFQGSHVPRTFGGGTKLEIK
Turning to B13, in experiment [5], the 300.19-CD84 binding came out at 94.2%.
